# Measured values taken from IntAct's records for PubMed 20594350.
# B1: Cell division cycle and apoptosis regulator protein 1 (Homo sapiens), Q8IX12 (parent)
# chain: MAQFGGQKNPPWATQFTATAVSQPAALGVQQPSLLGASPTIYTQQTALAAAGLTTQTPANYQLTQTAALQQQAAAAAAALQQQYSQPQQALYSVQQQLQQPQQTLLTQPAVALPTSLSLSTPQPTAQITVSYPTPRSSQQQTQPQKQRVFTGVVTKLHDTFGFVDEDVFFQLSAVKGKTPQVGDRVLVEATYNPNMPFKWNAQRIQTLPNQNQSQTQPLLKTPPAVLQPIAPQTTFGVQTQPQPQSLLQAQISAASITPLLQTQPQPLLQQPQQKAGLLQPPVRIVSQPQPARRLDPPSRFSGRNDRGDQVPNRKDDRSRERERERRRSRERSPQRKRSRERSPRRERERSPRRVRRVVPRYTVQFSKFSLDCPSCDMMELRRRYQNLYIPSDFFDAQFTWVDAFPLSRPFQLGNYCNFYVMHREVESLEKNMAILDPPDADHLYSAKVMLMASPSMEDLYHKSCALAEDPQELRDGFQHPARLVKFLVGMKGKDEAMAIGGHWSPSLDGPDPEKDPSVLIKTAIRCCKALTGIDLSVCTQWYRFAEIRYHRPEETHKGRTVPAHVETVVLFFPDVWHCLPTRSEWETLSRGYKQQLVEKLQGERKEADGEQDEEEKDDGEAKEISTPTHWSKLDPKTMKVNDLRKELESRALSSKGLKSQLIARLTKQLKVEEQKEEQKELEKSEKEEDEDDDRKSEDDKEEEERKRQEEIERQRRERRYILPDEPAIIVHPNWAAKSGKFDCSIMSLSVLLDYRLEDNKEHSFEVSLFAELFNEMLQRDFGVRIYKSLLSLPEKEDKKEKDKKSKKDERKDKKEERDDETDEPKPKRRKSGDDKDKKEDRDERKKEDKRKDDSKDDDETEEDNNQDEYDPMEAEEAEDEEDDRDEEEMTKRDDKRDINRYCKERPSKDKEKEKTQMITINRDLLMAFVYFDQSHCGYLLEKDLEEILYTLGLHLSRAQVKKLLNKVVLRESCFYRKLTDTSKDEENHEESESLQEDMLGNRLLLPTPTVKQESKDVEENVGLIVYNGAMVDVGSLLQKLEKSEKVRAEVEQKLQLLEEKTDEDEKTILNLENSNKSLSGELREVKKDLSQLQENLKISENMNLQFENQMNKTIRNLSTVMDEIHTVLKKDNVKNEDKDQKSKENGASV
# Variants of: B1
# Details: with wwtr1_mouse Wwtr1, Q9EPK5
# wwtr1_mouse Wwtr1, Q9EPK5, sequence (Q9EPK5 whole entry): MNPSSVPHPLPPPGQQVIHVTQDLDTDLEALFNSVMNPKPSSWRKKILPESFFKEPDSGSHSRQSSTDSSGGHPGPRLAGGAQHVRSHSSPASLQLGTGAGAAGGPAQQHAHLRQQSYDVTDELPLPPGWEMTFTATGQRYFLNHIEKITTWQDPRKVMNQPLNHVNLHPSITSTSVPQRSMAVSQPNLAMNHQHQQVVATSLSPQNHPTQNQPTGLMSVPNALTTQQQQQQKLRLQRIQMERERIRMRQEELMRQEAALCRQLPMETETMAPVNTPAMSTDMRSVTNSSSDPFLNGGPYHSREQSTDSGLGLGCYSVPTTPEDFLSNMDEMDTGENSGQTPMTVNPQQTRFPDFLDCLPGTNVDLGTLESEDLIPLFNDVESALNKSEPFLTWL
row,Variant,effect of a mutation on the interaction
1,T667D,increasing interaction
2,T667A,decreasing interaction
